Assay results: patent US5674712

Biological target: sub-unit alpha of human chorionic gonadotropin (human) (UniProt P01215)
Assay: SPR (BIACORE), alpha hCG fixed to the sensor

Kdiss, fold against MAb 5E8: 300 times
B1: antibody scFv5E8 specific for sub-unit alpha of human chorionic gonadotropin (scFv)
scFv: QVQLQQSGAELMKPGASVKLTASCSGFSIKDTYMHWVKQRPEQGLEWIGRIDPANGNTKYDPKFQGKATITADTSSNTAYLQLSSLTSEDTAVYYCHRFEFAMDYWGQGTTVTVSSGGGGSGGGGSGGGGSDIQGTQSPASLVVSLGQRATISCRASKSVSASGYSYVNWYQQKPGQPPKLLIYLASNLESGVPARFSGSGSGTDFTLNIHPVEEEDAATYYCQHSRELPLTFGAGTKLEISMEELMIEGR
